From US20110171292A1 (RESEARCH FOUNDATION OF STATE UNIVERSITY OF NEW YORK, published 2011)
Positions of bridges follow the written chain, without caps; N, C: chain ends. No end group written: not given here.

Target: thioredoxin reductase
Assay: cell-based or functional assay

IC50 of thioredoxin reductase activity (DTNB reduction, absorbance at 405-414 nM): 36 nM
Binder: GTCVNVGCIPRQIKIWFQNRRMKWKK (disulfide 3-8 (inferred)) [peptide YJB02]
